Test results taken from US20030082187A1.

Assays:
[1] = biological target: murine VCAM-1 (vascular endothelial adhesion molecule-1) (murine) (UniProt P29533); assay: cell-based or functional assay
[2] = biological target: murine VCAM-1 (vascular endothelial adhesion molecule-1) (murine) (UniProt P29533); assay: bEnd.3 cells, unstimulated against IL-1α-stimulated

UniProt P29533, sequence (P29533 25-739): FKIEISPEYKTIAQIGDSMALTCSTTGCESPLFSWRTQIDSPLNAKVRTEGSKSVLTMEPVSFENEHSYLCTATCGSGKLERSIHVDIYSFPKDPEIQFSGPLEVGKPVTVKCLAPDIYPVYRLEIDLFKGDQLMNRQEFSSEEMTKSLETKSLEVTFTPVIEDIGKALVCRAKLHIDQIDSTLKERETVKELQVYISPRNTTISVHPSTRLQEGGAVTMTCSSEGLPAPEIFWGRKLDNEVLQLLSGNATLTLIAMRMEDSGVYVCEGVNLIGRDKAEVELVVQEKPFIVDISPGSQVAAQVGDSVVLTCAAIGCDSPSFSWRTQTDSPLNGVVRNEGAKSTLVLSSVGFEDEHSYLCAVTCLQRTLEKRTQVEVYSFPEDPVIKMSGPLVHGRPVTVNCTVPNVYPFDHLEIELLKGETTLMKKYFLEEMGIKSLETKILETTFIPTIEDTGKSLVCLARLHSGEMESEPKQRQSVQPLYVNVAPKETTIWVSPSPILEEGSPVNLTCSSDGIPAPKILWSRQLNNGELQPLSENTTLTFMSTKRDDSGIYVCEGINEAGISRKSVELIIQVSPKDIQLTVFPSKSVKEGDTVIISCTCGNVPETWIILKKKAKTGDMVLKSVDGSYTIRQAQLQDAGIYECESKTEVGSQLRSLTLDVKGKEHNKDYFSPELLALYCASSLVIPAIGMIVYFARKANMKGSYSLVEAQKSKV

Substance | Generation of Factor Xa (intact cells, control/unstimulated) (ng per 10^4 cells per 60 min) [1] | Generation of Factor Xa (permeabilized cells, control/unstimulated) (ng per 10^4 cells per 60 min) [1] | Generation of Factor Xa (intact cells, IL-1α) (ng per 10^4 cells per 60 min) [1] | Generation of Factor Xa (permeabilized cells, IL-1α) (ng per 10^4 cells per 60 min) [1] | percent lower amount bound to unstimulated versus stimulated cells [2]
truncated tissue factor (tTF), unconjugated (from UniProt P13726 33-251) | 0.26 | 0.39 | – | – | –
control IgG·tTF (R187) coaguligand (from UniProt P13726 33-251) | 0.26 | 0.41 | – | – | –
anti-VCAM-1·tTF coaguligand (MK2.7 anti-VCAM-1 IgG covalently linked to truncated tissue factor) (from UniProt P13726 33-251) | 1.64 | 49.2 | 3.17 | 98.8 | 50%
